Laboratory results reported in patent CN114106180A (CHINESE PHARMACOLOGY UNIV, dated 2022).
One block for each binder: values may come before it.

Biological target: T1, 重组人CD24蛋白 (human, UniProt P25063 27-59, limits assumed)
T1 construct: also called 重组人CD24抗原
T1 chain (looked up): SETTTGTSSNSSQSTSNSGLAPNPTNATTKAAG
Experiment: indirect ELISA, recombinant human CD24 coated at 0.5 ug/mL, antibody 0.08-2.5 nM, goat anti-human IgG detection

- EC50: 0.152 nM
B1: CD24单克隆抗体cG7 (antibody, human IgG1, V domains shown)
VH: QVKLEESGGGLVQPGGSLKISCAASGFDFSRYWMSWVRQAPGKGLEWIGEINPDSSTINYTPSLRDKFIISRDNAKNTLYLQMSKVRYEDTSLYYCARQGDYWGQGTSVTVSS
VL: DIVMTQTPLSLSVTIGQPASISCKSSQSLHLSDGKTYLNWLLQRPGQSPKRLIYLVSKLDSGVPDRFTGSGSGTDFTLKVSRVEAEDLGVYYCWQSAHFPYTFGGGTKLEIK
notes: also called 亲本CD24单克隆抗体cG7; CD24嵌合抗体

- EC50: 0.153 nM
B2: 带有工程化半胱氨酸的CD24单克隆抗体cG7SV (antibody, V domains shown)
VH: B1 VH
VL: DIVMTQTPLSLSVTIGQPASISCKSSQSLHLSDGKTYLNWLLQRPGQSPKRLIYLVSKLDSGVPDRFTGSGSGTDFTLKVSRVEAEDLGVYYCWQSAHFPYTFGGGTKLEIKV
notes: also called 带有工程化半胱氨酸的CD24嵌合抗体
